Columns and labels:
MIA PaCa-2 cells = test: Cellular imaging (CLSM) of FITC-labelled molecules; format: cell-based; conditions: FITC-labelled molecules, MIA PaCa-2 cells, 1 h incubation, CLSM
Description: To further confirm this hypothesis, the M1 and M2 were equally labeled by FITC for cell imaging (Fig. 5b). To simulate the dynamic physiological condition, the cell culture medium was replaced every 15 min. After 1 h of incubation with M1 and M2 at the same molecule molar concentration, there occurred significant differences between the two molecules (Fig. 5c). […] The huge difference can be explained by the fact that the secondary assembly rate broke the balance between the targeted ligand and receptor, and thus tended to a stable assembly interaction. The retention efficiency depended on the assembly rate constant Ka. Meanwhile, the rapid dynamic assembly of BIVA probe in situ around the cell membrane, and contributed to the efficient formation and retention of nanofibers on the cell profile. When the incubation time was delayed up to 2 h, some components could be endocytosed into the cells, but most of them were found on the membranes (Supplementary Fig. 18). […] Then, the isolated cells were collected and lysed, the extracted cell membrane fragments were stained with ThT. […] In order to verify the influence of the addition of the targeting module of the probe molecules, we explored the imaging of R-M1 and M4 on cells.
Fig. 5 The BIVA effect with enhanced targeting to pancreatic tumor cell for boundaries imaging. a Illustration of BIVA effect: active targeting and assembly/aggregate induced retention (AIR) effect. b Chemical structure of FITC labeling. c 2D and 3D confocal images of M2 with active targeting property and M1 with BIVA effect on MIA PaCa-2 cells after incubation for 1 h. d The distribution of M1 on MIA PaCa-2 cell. e ThT staining of the lysed cell membrane of MIA PaCa-2. f, Illustration of migration inhibition after treated by BIVA probe. g The image of the migrated cells after treatment of PBS (blank), M2, M4, and M1. Scale bar: 100 μm. h The pie diagram of quantitative statistical calculation of the migrated cells (blue) in different groups. The blank control was set as 100% migrated cells.
MIA PaCa-2 cells were digested with trypsin, counted with cell counting plate, diluted to 1 × 10^4 with DMEM medium, and 1 mL to 1 cm diameter confocal microscope dish was taken. The cells were incubated in […] atmosphere for 24 h. The medium containing M1 and M2 (50 μM) was replaced and incubated with the cells for 2 h. The cells were washed with PBS for 3 times. CLSM (Zeiss 710) was used to image cells under 40 × objective, excitation = 488 nm, and emission >520 nm.
Supplementary Fig. 19 ∣ CLSM images of Miapaca-2 cells treated with different molecules or M1 under different conditions. […]

MIA PaCa-2 tumor [1] = conditions: mouse, in vivo, 16 mg/kg
Description: In order to reduce systemic error and individual difference, we constructed the subcutaneous pancreatic cancer model in mice for quantitatively calculating of the metabolic data.
All the animal experiments were performed in accordance with the Guide for the Care and Use of Laboratory Animals approved by the Committee for Animal Research of the National Center for Nanoscience and Technology. The MIA PaCa-2 tumor-bearing mice were intravenously injected with ICG, M1 and M2 (16 mg/kg), respectively for in vivo fluorescence imaging with in vivo spectrum imaging system. Finally, mice were sacrificed to collect the major organs and tumors for ex vivo fluorescence imaging.

[2] = parameters: species or system mice; conditions: mouse, in vivo, iv, 16 mg/kg
Excerpt: The acute toxicity evaluation of M1 to mice were verified by blood biochemistry, hemograms, and histological analysis. The representative biomarkers of liver function included alanine aminotransferase (ALT), alkaline phosphatase (ALP), aspartate aminotransferase (AST), total protein (TP), and albumin concentration (ALB). […] In addition, the hematological assessment results including creatinine (CREA), white blood cells (WBC), red blood cells (RBC), hematocrit (HCT), mean corpuscular volume […], mean corpuscular hemoglobin […], mean corpuscular hemoglobin concentration (MCHC), red cell volume distribution width-coefficient of variation (RDW-CV), platelet (PLT)and mean platelet volume (MPV) were carried out (Fig. 8b). All the above indicators in PBS group and M1 group appeared normal, which was basically consistent with the normal range reported in the literature. Then the mice from PBS group and M1 group were sacrificed for the further histological section analysis of the significant organs. After Hematoxylin and Eosin (H&E) staining, the slices of heart, liver, spleen, lung, kidney, and pancreas were compared and evaluated (Fig. 8c).
Fig. 8 Acute toxicity evaluation. a Liver function indicators: alanine aminotransferase (ALT), alkaline phosphatase (ALP), aspartate aminotransferase (AST), total protein (TP) and albumin concentration (ALB). […] Staining: H&E; Injection dose of M1. (i.v. administration): 16 mg/kg; Administration time: 24 h. Scale bar 200 μm.
The female Balb/c nude mice (6–8 weeks, n = 3) were sacrificed for blood and major organs collection after treated with M1 at a dose of 16 mg/kg on the 24 h. The histology evaluation of major organs was performed by Google biotechnology (Wuhan) Co. LTD. The blood biochemistry and haematology analyses were carried out by Vital River Laboratory Animal Technology Co. Ltd.

MIA PaCa-2 tumor [3] = test: In vivo photoacoustic imaging; parameters: species or system mice; conditions: 12 h after i.v. injection, 16 mg/kg
Description: The MIA PaCa-2 tumor-bearing mice were constructed for in vivo photoacoustic imaging of M1. After intravenously injected with M1 (16 mg/kg) through tail vein, the PA images of mice were acquired with MOST (mode: MOST invision 128) at 12 h post injection.
Supplementary Fig. 22∣ 3D reconstruction PA images of tumor-bearing mice injected with M1 (16 mg/kg) through tail
vein.PA images of mice were acquired with MOST (mode: MOST 128) at 12 h post injection.
(1 picture or pasted object on this page, not shown here)

## mPEG-GPAKLVFFGC(IR783)GRGD [M1]
MIA PaCa-2 cells
  fluorescence signal on the cell membrane: higher fluorescence retention rate on the cell membrane
MIA PaCa-2 tumor [1]
  AUC 0-120 h in tumor tissue relative to M2: 3.6 times
  reduction of tumor fluorescence signal between 12 h and 120 h: 27.6%
  time to peak of tumor signal: ~12 h
MIA PaCa-2 tumor [1]; iv
  retention in tumor lasted: up to 96 h
[2]
  hematological assessment (CREA, WBC, RBC, HCT, MCV, MCH, MCHC, RDW-CV, PLT, MPV): normal
  hepatic toxicity (ALT, ALP, AST, TP, ALB): no obvious hepatic toxicity
  organ damage in H&E slices of heart, liver, spleen, lung, kidney, pancreas: no noticeable organ damage and tissue injury
MIA PaCa-2 tumor [3]
  accumulation in tumor by photoacoustic imaging: more accumulation in tumor than that of M2

— article PMC8776730 (Nature Communications, 2022)
